Where “and” joins values, the source holds several entries; their conditions need not be identical. Identical values can stand only once. Like-named read-outs stand apart in the source and are kept apart here. Square brackets hold non-standard residues; d marks the D form. Ends that are not written are not given here. Peptide text beside a SMILES is read from it. * marks the point of attachment. ξ: configuration not given here. Biotin = O=C1N[C@H]2[C@H](CS[C@H]2CCCCC(=O)*)N1; ξGly(nC16H33) = CCCCCCCCCCCCCCCCC(N)C(=O)O; Palmitoyl = CCCCCCCCCCCCCCCC(=O)*
Target: CXCR4 (Homo sapiens, UniProt P61073)
Assay: Chemotaxis assay, effect on SDF1-a (CXCL12) induced migration of CCRF-CEM cells
Format: cell-based
Set-up: a human T-cell ALL line that endogenously expresses CXCR4; endogenous in cells; host or cells: CCRF-CEM (human T-cell ALL line)
Details: for activity at 1 µM: CCRF-CEM; for Peak Ratio: peak test compound/peak control
[1] = Table 20, i3 loop, CEM cells, conc 0.01 uM
[2] = Table 20, i3 loop, CEM cells, conc 0.03 uM
[3] = Table 20, i3 loop, CEM cells, conc 0.1 uM
[4] = Table 20, i3 loop, CEM cells, conc 0.3 uM
[5] = Table 20, i3 loop, CEM cells, conc 1.0 uM
[6] = Table 20, i3 loop, CEM cells, conc 3.0 uM
[7] = Table 21, i4 loop, CEM cells, conc 1.0 uM
[8] = Table 20, i3 loop, CEM cells, conc 1.0 uM, read-out: AUC (% of vehicle)
[9] = Table 20, i3 loop, CEM cells, conc 1.0 uM, read-out: Max (% of vehicle)
[10] = Table 18, i1 loop, CEM cells, drug conc 1.0 uM

Chain of CXCR4 (P61073 whole entry): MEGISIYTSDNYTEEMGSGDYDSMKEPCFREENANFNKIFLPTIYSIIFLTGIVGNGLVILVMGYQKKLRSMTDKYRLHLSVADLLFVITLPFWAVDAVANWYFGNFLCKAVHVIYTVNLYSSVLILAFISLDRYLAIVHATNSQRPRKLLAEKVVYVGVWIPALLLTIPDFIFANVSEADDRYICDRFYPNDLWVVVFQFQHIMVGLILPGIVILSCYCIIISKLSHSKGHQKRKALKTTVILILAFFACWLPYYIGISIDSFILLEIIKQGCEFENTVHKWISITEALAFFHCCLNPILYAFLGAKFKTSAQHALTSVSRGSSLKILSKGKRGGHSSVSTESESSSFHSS

Pal-KLSHSKGHQKRKALKTTV-amide (Palmitoyl-KLSHSKGHQKRKALKTTV-NH2; SMILES CCCCCCCCCCCCCCCC(=O)N[C@@H](CCCCN)C(=O)N[C@@H](CC(C)C)C(=O)N[C@@H](CO)C(=O)N[C@@H](Cc1c[nH]cn1)C(=O)N[C@@H](CO)C(=O)N[C@@H](CCCCN)C(=O)NCC(=O)N[C@@H](Cc1c[nH]cn1)C(=O)N[C@@H](CCC(N)=O)C(=O)N[C@@H](CCCCN)C(=O)N[C@@H](CCCNC(=N)N)C(=O)N[C@@H](CCCCN)C(=O)N[C@@H](C)C(=O)N[C@@H](CC(C)C)C(=O)N[C@@H](CCCCN)C(=O)N[C@H](C(=O)N[C@H](C(=O)N[C@H](C(N)=O)C(C)C)[C@@H](C)O)[C@@H](C)O) [Compound 90]
AUC (% of vehicle) [1]: 171.8 % of vehicle | Max (% of vehicle) [1]: 156.08 % of vehicle | Peak Test Compound [1]: 0.16 nM | AUC (% of vehicle) [2]: 217.53 % of vehicle | Max (% of vehicle) [2]: 202.16 % of vehicle | Peak Test Compound [2]: 0.16 nM | AUC (% of vehicle) [3]: 175.95 % of vehicle | Max (% of vehicle) [3]: 157.79 % of vehicle | Peak Test Compound [3]: 0.03 nM | AUC (% of vehicle) [4]: 129.83 % of vehicle | Max (% of vehicle) [4]: 113.68 % of vehicle | Peak Test Compound [4]: 0.16 nM | Max (% of vehicle) [5]: 131.59 % of vehicle and 76.8 % of vehicle | Peak Test Compound [5]: 0.16 nM | AUC (% of vehicle) [6]: 152.75 % of vehicle | Max (% of vehicle) [6]: 114.49 % of vehicle | Peak Test Compound [6]: 0.16 nM

96: CXCR4 i3 loop compound (SHSKGHQKRKALK; also: lipid Pal, place not given here) [Compound 96]
AUC (% of vehicle) [5]: 34.22 % of vehicle | Max (% of vehicle) [5]: 63.12 % of vehicle

104: CXCR4 i3 loop compound (IIISKLSHSKGHQKRKALKT) [Compound 104]
AUC (% of vehicle) [5]: 36.4 % of vehicle | Max (% of vehicle) [5]: 56.39 % of vehicle

109: CXCR4 i4 domain compound (GAKFKTSAQHALTSVSRGSSLKILSKGKRGGHSSVST) [Compound 109]
AUC (% of vehicle) [7]: 49.31 % of Vehicle | Max (% of vehicle) [7]: 49.84 % of Vehicle | Peak Test Comp. [7]: 0.2 nM

103: CXCR4 i3 loop compound (IIISKLSHSKGHQKRKALKT) [Compound 103]
AUC (% of vehicle) [5]: 26.32 % of vehicle | Max (% of vehicle) [5]: 24.45 % of vehicle

CCCCCCCCCCCCCCCC(=O)N[C@@H](CC(C)C)C(=O)N[C@@H](CO)C(=O)N[C@@H](Cc1cnc[nH]1)C(=O)N[C@@H](CO)C(=O)N[C@@H](CCCCN)C(=O)NCC(=O)N[C@@H](Cc1cnc[nH]1)C(=O)N[C@@H](CCC(N)=O)C(=O)N[C@@H](CCCCN)C(=O)N[C@@H](CCCNC(=N)N)C(=O)N[C@@H](CCCCN)C(=O)N[C@@H](C)C(=O)N[C@@H](CC(C)C)C(=O)N[C@@H](CCCCN)C(N)=O [Compound 95] (Palmitoyl-LSHSKGHQKRKALK-NH2)
activity at 1 µM [8]: 77.5% | activity at 1 µM [9]: 92.1% | Peak Test Compound [5]: 1 nM | Peak Ratio [5]: 1

Pal-SKLSHSKGHQKRKALKTTVIL-amide (Palmitoyl-SKLSHSKGHQKRKALKTTVIL-NH2; SMILES CCCCCCCCCCCCCCCC(=O)N[C@@H](CO)C(=O)N[C@@H](CCCCN)C(=O)N[C@@H](CC(C)C)C(=O)N[C@@H](CO)C(=O)N[C@@H](Cc1c[nH]cn1)C(=O)N[C@@H](CO)C(=O)N[C@@H](CCCCN)C(=O)NCC(=O)N[C@@H](Cc1c[nH]cn1)C(=O)N[C@@H](CCC(N)=O)C(=O)N[C@@H](CCCCN)C(=O)N[C@@H](CCCNC(=N)N)C(=O)N[C@@H](CCCCN)C(=O)N[C@@H](C)C(=O)N[C@@H](CC(C)C)C(=O)N[C@@H](CCCCN)C(=O)N[C@H](C(=O)N[C@H](C(=O)N[C@H](C(=O)N[C@H](C(=O)N[C@@H](CC(C)C)C(N)=O)[C@@H](C)CC)C(C)C)[C@@H](C)O)[C@@H](C)O) [Compound 88]
positive allosteric modulation of the SDF1-a dependent chemotactic response (RFU) (30 nM of compound): induces a positive SDF1-a mediated chemotactic response | AUC (% of vehicle) [1]: 172.33 % of vehicle | Max (% of vehicle) [1]: 156.08 % of vehicle | Peak Test Compound [1]: 0.03 nM | AUC (% of vehicle) [2]: 226.59 % of vehicle | Max (% of vehicle) [2]: 202.16 % of vehicle | Peak Test Compound [2]: 0.03 nM | AUC (% of vehicle) [3]: 183.19 % of vehicle | Max (% of vehicle) [3]: 157.79 % of vehicle | Peak Test Compound [3]: 0.03 nM | AUC (% of vehicle) [4]: 131.2 % of vehicle | Max (% of vehicle) [4]: 113.68 % of vehicle | AUC (% of vehicle) [5]: 143.61 % of vehicle | Max (% of vehicle) [5]: 131.59 % of vehicle | Peak Test Compound [5]: 0.8 nM | AUC (% of vehicle) [6]: 116.49 % of vehicle | Max (% of vehicle) [6]: 114.49 % of vehicle | Peak Test Compound [6]: 0.8 nM

53 (MGYQKKLRSMTDKYRLHL; not fully specified) [Compound 53]
AUC (% of) [10]: 60.98 % of and 91.1 % of | Max (% of) [10]: 68.45 % of and 89.56 % of

CCCCCCCCCCCCCCCCC(NC(=O)CCCC[C@@H]1SC[C@@H]2NC(=O)N[C@@H]21)C(=O)N[C@@H](Cc1cnc[nH]1)C(=O)N[C@@H](CO)C(=O)N[C@@H](CCCCN)C(=O)NCC(=O)N[C@@H](Cc1cnc[nH]1)C(=O)N[C@@H](CCC(N)=O)C(=O)N[C@@H](CCCCN)C(=O)N[C@@H](CCCNC(=N)N)C(=O)N[C@@H](CCCCN)C(=O)N[C@@H](C)C(=O)N[C@@H](CC(C)C)C(=O)N[C@@H](CCCCN)C(N)=O (some centres unmarked) [Compound 87] (Biotin-[ξGly(nC16H33)]HSKGHQKRKALK-NH2)
activity at 1 µM [8]: 52.6% | activity at 1 µM [9]: 76.1% | Peak Test Compound [5]: 0.2 nM | Peak Ratio [5]: 0.2

CCCCCCCCCCCCCCCC(=O)N[C@@H](Cc1cnc[nH]1)C(=O)N[C@@H](CO)C(=O)N[C@@H](CCCCN)C(=O)NCC(=O)N[C@@H](Cc1cnc[nH]1)C(=O)N[C@@H](CCC(N)=O)C(=O)N[C@@H](CCCCN)C(=O)N[C@@H](CCCNC(=N)N)C(=O)N[C@@H](CCCCN)C(=O)N[C@@H](C)C(=O)N[C@@H](CC(C)C)C(=O)N[C@@H](CCCCN)C(=O)N[C@H](C(=O)N[C@H](C(=O)N[C@H](C(N)=O)C(C)C)[C@@H](C)O)[C@@H](C)O [Compound 99] (Palmitoyl-HSKGHQKRKALKTTV-NH2)
activity at 1 µM [8]: 45% | activity at 1 µM [9]: 64.5% | Peak Test Compound [5]: 0.2 nM | Peak Ratio [5]: 0.2

114: CXCR4 i4 domain compound (GAKFKTSAQHALTSVSRGSSLKILSK) [Compound 114]
AUC (% of vehicle) [7]: 34.22 % of Vehicle | Max (% of vehicle) [7]: 63.12 % of Vehicle

CCCCCCCCCCCCCCCC(=O)N[C@@H](CCSC)C(=O)NCC(=O)N[C@@H](Cc1ccc(O)cc1)C(=O)N[C@@H](CCC(N)=O)C(=O)N[C@@H](CCCCN)C(=O)N[C@@H](CCCCN)C(=O)N[C@@H](CC(C)C)C(=O)N[C@@H](CCCNC(=N)N)C(=O)N[C@@H](CO)C(=O)N[C@@H](CCSC)C(=O)N[C@H](C(=O)N[C@@H](CC(=O)O)C(=O)N[C@@H](CCCCN)C(=O)N[C@@H](Cc1ccc(O)cc1)C(=O)N[C@@H](CCCNC(=N)N)C(=O)N[C@H](C(N)=O)[C@@H](C)CC)[C@@H](C)O [Compound 49] (Palmitoyl-MGYQKKLRSMTDKYRI-NH2)
activity at 1 µM (Table 18, i1 loop, CEM cells, drug conc 1.0 uM, read-out: AUC (% of)): 50.9% | activity at 1 µM (Table 18, i1 loop, CEM cells, drug conc 1.0 uM, read-out: Max (% of)): 62.7%
